Results as given in paper PMC11728977, “Crystallographic, kinetic, and calorimetric investigation of PKA interactions with L-type calcium channels and Rad GTPase” (The Journal of Biological Chemistry, 2024).

Legend:
[1] = system: CC(C)C[C@H](NC(=O)[C@H](Cc1c[nH]cn1)NC(=O)[C@H](Cc1ccccc1)NC(=O)[C@H](CO)NC(=O)[C@H](C)NC(=O)[C@H](CCCNC(=N)N)NC(=O)[C@H](CCCNC(=N)N)NC(=O)CNC(=O)[C@H](CC(C)C)NC(=O)[C@H](CO)NC(=O)[C@H](C)NC(=O)[C@H](CO)NC(=O)[C@H](CCCNC(=N)N)NC(=O)[C@H](CC(C)C)NC(=O)[C@H](Cc1ccccc1)NC(=O)CNC(=O)[C@@H](N)CCCNC(=N)N)C(=O)O; assay: purified protein, by the assay type; conditions: other: ADP-Glo; 3 nM PKAc, 1 mM ATP, 5 mM Mg2+, substrate 0-256 μM, room temperature 30 min; Michaelis-Menten fit; mean ± SD of n = 3 or 4; pH 7.4
Method: (§1) We used enzyme kinetics to investigate the activity of catalytic subunit of PKA (PKAc) toward the three target sites within the C terminus of CaV1.2. We performed discontinuous kinase assays using an ADP-GloMax Assay kit.
(§2) Kinase assays were conducted using an ADP-Glo Kinase Assay Kit (Promega). […] Therefore, we performed assays with excess ATP (1 mM) and Mg^2+ (5 mM) to saturate PKAc prior to substrate binding. Reagents were prepared as described in the kit, aliquoted, and frozen at −20 °C prior to use. Reactions were conducted in 384-well solid white polystyrene microplates (Corning). Peptide substrates and EFPreIQ were dissolved and/or diluted to 800 μM using 50 mM Hepes (pH 7.4), 150 mM KCl, 5 mM MgCl2, and 4 mM TCEP. […] For peptides lacking tryptophan, the amount of volume needed to achieve a concentration of 800 μM was calculated prior to dissolving. The peptides/substrate was 2-fold serially diluted using the same buffer to create 11 reactions per curve ranging from 0 to 256 μM. ATP was added to each reaction to achieve a final concentration of 1 mM. Reactions were initiated by the addition of thawed PKAc at a final concentration of 3 nM at a final well volume of 20 μl. After allowing reactions to occur at room temperature for 30 min, 3 × 5 ml from each reaction in a curve was taken and mixed with 5 ml ADP-Glo Reagent for a total of three technical replicates per biological replicate. After 40 min, 10 ml of kinase detection reagent was added to each technical replicate and, after waiting 60 min, relative luminescence unit were measured using a VICTOR X4 Multilabel Plate Reader (PerkinElmer).
(§3) The relative luminescence unit values were converted to specific activity values via interpolation of a standard curve that was created in accordance with the manufacturer’s protocol. The three technical replicates were averaged to calculate a biological replicate value and plotted against peptide concentration using GraphPad 9 (Prism) software (https://www.graphpad.com/updates/prism-900-release-notes). Technical replicate values resulting from experimental error were removed from the dataset and subsequent averaging. […] The Michaelis–Menten kinetics fitting function was used to generate a nonlinear regression to calculate both a Km constant and Vmax value for each biological replicate curve. These Km constant and Vmax values were averaged and SDs are reported. Figures displaying data points and Michaelis–Menten curves depict the average specific activity values calculated from all biological replicates in the three or four experiments (n = 3 or n = 4) per peptide (n = 4 for Ser1981 and Ser272 peptides, n = 3 for all others).

[2] = system: C[C@H](NC(=O)CN)C(=O)NCC(=O)N[C@@H](CCCNC(=N)N)C(=O)N[C@@H](CCC(=O)O)C(=O)N[C@@H](CCCNC(=N)N)C(=O)N[C@@H](CC(=O)O)C(=O)N[C@@H](CCCNC(=N)N)C(=O)N[C@@H](CCCNC(=N)N)C(=O)N[C@@H](CCCNC(=N)N)C(=O)NCC(=O)N[C@@H](CO)C(=O)N[C@H](C(=O)N1CCC[C@H]1C(=O)N[C@@H](Cc1c[nH]c2ccccc12)C(=O)O)[C@@H](C)O; assay: purified protein, by the assay type; conditions: other: ADP-Glo; 3 nM PKAc, 1 mM ATP, 5 mM Mg2+, substrate 0-256 μM, room temperature 30 min; Michaelis-Menten fit; mean ± SD of n = 3 or 4; pH 7.4
Method: as §1, §2, §3

Work on “PKAc (catalytic subunit of PKA, PKAcα 16-351) (Mus musculus)” yielded a Km [1] of 8.1 ± 2.5 µM, a kcat [1] of 15.5 ± 1.2 s⁻¹ and a kcat/Km [1] of 1.9e+06 ± 600000 M⁻¹ s⁻¹. It also gave a Km [2] of 19.0 ± 6.7 µM, a kcat [2] of 16.2 ± 0.8 s⁻¹ and a kcat/Km [2] of 900000 ± 300000 M⁻¹ s⁻¹.
